We go through 41 sequences from the nanobody polyreactivity screen of Harvey et al. (2022).

A short description of this data set: yeast display, Sf9 membrane polyspecificity reagent, FACS + sequencing; frameworks hold sequencing errors. In a few lines:
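A nanobody's polyreactivity label depends on the gate it was sorted from. Yeast display cells were stained with 10% biotinylated, detergent-solubilized Sf9 membrane reagent for 1 hour at 4 °C, enriched on streptavidin microbeads and sorted by FACS. The low and high (top ~1%) gates were set on anti-HA fluorescence for expression and streptavidin fluorescence for reagent binding.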
As for “QVQHVDSGGGLVQAGGSLRLSCAASGSTFFTYAMGWYRQEPGKERELVAAISQSSVRTHYADSVKGRFTISRDNAKNTVYLQMNSLKPEDTAVYYCAARVYGRQYPGAPYYYWGQGTQVTVSS”, the “polyreactivity (PSR sort gate)” value is “high polyreactivity”.
To “QVQHVDSGGGLVQAGGSLRLSFAASGFRFGINAMGWYRPAPGKERELVAAISKRTGSTYYADSVKGRFTSSRDNAKNTVYLQMNSLKPEDTAVYYCNKRVFPGYRLGGFWGQGTQVTVSS” belongs “high polyreactivity”.
For “QVQHVEKGGALVQAGGSLRLSCAASGFTVDWYAMGWYIQAPGKERELVAAITTSGGTKYYADSVKGRFTISRDNAKNTVYLLMNCLNPEDTAVYYCAAEGTWSRNYDYWGQGTQVTVSS” the value was “low polyreactivity”; for “QVQHVESAGGLVQAGGSLRLICAASGSIFFHYGMGWYRQAPGKERELVADIRSGGSTYYADSVKGRFTSSRDNAKNTVYLQMNSLKPDDSAVYYCAAVLALFGVTHVDYWGQGTQVSVSS”, “low polyreactivity”.
For “QVQHVESAGGLVQAGGSLRLSCSASGSIFYFYAMGWSRQAPGKERELVATITSSGSTNYADSVKGRFTISRDNAKNTVYLQMNSLKPEDTAVYYCNVDVISLKPYVSSYFAIKYDYWGQGTQVTVSS” the value was “low polyreactivity”.
Take “QVQHVESAGGLVQAGGSLSLSCAASGSIFNLYAMGWYRQAPGKERELVAAIRWDGGSTYNADSVKGRFTISRDTAKNTVYLQMNSLKPEDTAVYYCAAETVYFRLLILDYWGQGTQVTVSS”: the “polyreactivity (PSR sort gate)” value was “high polyreactivity”.
For “QVQHVESGGALVQAGGSLRLSCAASARTFPGYTMGWYRQAPGKETELVAAITRVGTTYYADSVKGRFTISRDNAKNTVYLQMNSLKPEDTAVYYCAAVISQGFIRYYYWGQGTQVTVSS” the value was “high polyreactivity”; for “QVQHVESGGCLVQAGGSLRLSCASSGSIFDRNAMGWYRQAPGKERELVAAISSRGGSTYYADSVKGRFTISRDNAKNTVYLQMNSLKPEDTAVYYSAKRRDLYGGYRPYYYWGQGTQVTVSS”, “high polyreactivity”; for “QVQHVESGGGIDQAGGSLRLSCAASGSTSVQYAMGWYRQATGKERELVAAISLSVGSTYYADSVKGRFTISRDNAKITVYLQMNCLKPEDTAVYYCASGYPPEDPEDYWGQGTQVTVSS”, “low polyreactivity”.
To “QVQHVESGGGIVHAGGSLRLSCAASGSIFTRYTMGWDRMATGKERELVAVISDSSGRTYYADSVKGRFTISRDNAKNTFYLQLNSLKPADTAVYYCAAEYSDIYEYWGQGTQVTVSS” belongs “low polyreactivity”; to “QVQHVESGGGIVQAGGSLRLSCAASGIIFTSNAMGWYRQAPGKERELVAAINWSGARTYYADSVKGRFTISRDNAKNTVYLQMNSLKPEDTAVYYCNVVTRAATYPDYSYDYWGQGTQVTVSS”, “high polyreactivity”.
To “QVQHVESGGGIVQAGGSLRLSCAASGRTYAINAMGSYRQAPGKEMELLASITTRDSSTYYADSVKGRFTISRDNAKNTVYLQMKSLIPDDTAVYYCAKVKLVTYLYRLFVYGSYYWGLGTQVTVSS” belongs “low polyreactivity”; to “QVQHVESGGGLLQAGGSLRLSCAASGITFWPYAMGWYRQAPGKERELVAAIRASVGRTYYADSVKGRFTISREYAKNTVYLQMNSLIPVDTAVYYCNAYGRYGKFRVEYDYWGQGTQVTVSS”, “low polyreactivity”; to “QVQHVESGGGLVHAGGRLRLRCAASGSTFVTNVMGWYSQEPGKEMELVAAISYSGGNTYYEDSEKGRFTISRDNAQNSVYLQMNSLKQEDTAVYYCAAAYKPFKKMGYWGQGTQVTVSS”, “high polyreactivity”.
As for “QVQHVESGGGLVQAAGSLRLSCAASGRIFYRNAMGWSRQAPGKERELVAAISKSGGSTYYSDSVKGRFTISRDNAKNTVYLQMNSLKPEDTAVYYCAAGTRLSDGYYWGQGTQVTVSS”, the “polyreactivity (PSR sort gate)” value is reported as “high polyreactivity”.
For “QVQHVESGGGLVQAAGSLRLSCAASGTTLSSYAMGWSRQAPGKVRELVAAINSSGGRTYYADSVKGRFTISRDNAKNTVYLQMNSLKPDDTAVYYCAATRGRYREYEDYWGQGTQVTVSS” the value was “high polyreactivity”.
To “QVQHVESGGGLVQAGGGLRLSCAASGRIFRQNTMGWYRHAAGKEWELVASISLSAGSTFYADSVKGRFTISRDNAKNTVYLQMNSLKPEDTAVYYCAAEKPVHYVRGVHYDYWGQGTQVTVSS” belongs “low polyreactivity”; to “QVQHVESGGGLVQAGGILRFSSPASGGTVNINAMGWYIQAPGKERELFADISYSDGTTDYADSVKGRFTISRDNAKNTVYLQMNSLKPEDTAVYYCAAYYYYYSGFGQRSYSWGQGTNVTVSS”, “low polyreactivity”; to “QVQHVESGGGLVQAGGILRLICDASGGIFAANAMGWYRPAPGQERELVAAITSVGSTYADSVKGRFTISRDNAKNTVYLQMNSLKPEDTAVYYCAADTESVIVWYEDDYWGQGTQVTVSS”, “low polyreactivity”.
As to “QVQHVESGGGLVQAGGRLRLTCPASGSTVGYYAMGWYRQAPGKEREFVATITFGGSTHYADSVKGRFTISRDNAKYTVYLQMNSLKPEDTAFYYCAKRYYTNRHSRAFGYWGQGTQVTVSS”, the “polyreactivity (PSR sort gate)” value was “high polyreactivity”.
Take “QVQHVESGGGLVQAGGSLLLSCAASGFIFKSNAMGWYRQAPGKERELVAAITSSGGRTYYADSVKGRFTISRDNAKNTVYLQMNSLKPEDTAVYYCAADIALGRYYYWGQGTQVTVSS”: the “polyreactivity (PSR sort gate)” value is given as “high polyreactivity”.
To “QVQHVESGGGLVQAGGSLLLSCAASGSTFARYAMGWYRQPPGKERELVAAISRSGSNTYYADSVKGRFTISRDNAKNTVYLQMNSLKPEDTAVYYCNRTHRQSFSKLDYWGQGTQVTVSS” belongs “high polyreactivity”.
To “QVQHVESGGGLVQAGGSLRISCAPSGRTFFPNAMGCYRQAPGKEREFVAAITKTDDSTYYADSVKGRFTISRDNAKNTVYLPMNSLKPEDTAVYYCNAGDTQIRFYYWGQGTQETVSS” belongs “low polyreactivity”.
To “QVQHVESGGGLVQAGGSLRLICAASGITFHYYAMGWYRQAPGKDRELVAAISSGGRTNYADSVKGRFTISRDNAKNTVYLQMNCLKPEDTAVYYCAGVYFGGYTATVYYWGQGTQVTVSS” belongs “high polyreactivity”.
Take “QVQHVESGGGLVQAGGSLRLICAASGRIFTRYAMGWYRQAPGKERELVAAISASGGSTHYADSVKGRFTISRDNAKNTVYLQMNSLKPEDTAVYYCADAYVSRNSGFGYWGQGTQVTVSS”: the “polyreactivity (PSR sort gate)” value is recorded as “low polyreactivity”.
For “QVQHVESGGGLVQAGGSLRLSCAACGRTFTPYAMGWYLQEPGKDREFVAAIDTSGGSTYADSVNGRFTISRDNAKYTVYLQKNSLKPEDTAVYYCGTRGFYSWDYWYLWEYDYWGQGTQVTVSS” the value was “low polyreactivity”.
For “QVQHVESGGGLVQAGGSLRLSCAASAFTFRFYAMGWYRQAPAKEMELVAAISWSGTSTYYADSVKGRFTLSRDNAKNTVYLQMNSLIQDDTAVYYCATQYRRRQRKYDYWGQGTQVTVSS” the value was “high polyreactivity”.
For “QVQHVESGGGLVQAGGSLRLSCAASARTFHGYPLGVYRQAAGKETELVARINWSDGRTYYADSVKGRFTMSRDNAKNTVYFQMNSLKPEDTAFYYCAAEKTVSYAPAWYYYWGQGTQVTVSS” the value was “low polyreactivity”; for “QVQHVESGGGLVQAGGSLRLSCAASASTFAWYPMGWYRQAPGKERELVAAITRDGSTYYADSVKGRFTISRDNAKNTVYLQMNSLKPEDTAVYYCAADLSYWRGGHSRNYWGQGTQVTVSS”, “low polyreactivity”.
Consider “QVQHVESGGGLVQAGGSLRLSCAASGAIFWGYAMGWYRQAPGKERELVATISWTGGSTYYADSVKGRFTISRDNAKNTVYLQMNSLKPEDTAVYYCAKVIIHYYYLVNLVDVDYWGQGTQVTVSS”, for which the “polyreactivity (PSR sort gate)” value is “low polyreactivity”.
For “QVQHVESGGGLVQAGGSLRLSCAASGFIFSSYAIGWYRQAPGKEREFVASIRRRGGSTYYAYSVKGRFTISRDNAKNTVILQMNRLIPEDTAVYYCAREVYRHFAPVGYDYWGQGTQVTVSS” the value was “high polyreactivity”; for “QVQHVESGGGLVQAGGSLRLSCAASGFIFSTNAMGRYRQAPGKERELVATIRSGGSTNYADSVKGRFTISRDNAKYTVYLQMNSLKPEDTAVYYCNVDDTSWTTSGGRFGQVEYDYWGQGTQVTVSS”, “low polyreactivity”.
For “QVQHVESGGGLVQAGGSLRLSCAASGFIFWDYAMGWYRQAPGKERELVAAISDSGGDTYYADSVKGRFTISRDNAKNTVYLQMNSLIPEDTAVYYCAAETYCGGYPVTYDYWGQGTQVTVSS” the value was “low polyreactivity”.
In the case of “QVQHVESGGGLVQAGGSLRLSCAASGFIFYRYTMVWYRQAHGKERELVAAISQSGGNTYYADSVKGRFTISRDNAKNTVYLLMNSLKPEDTAVYYCNAVYYYYAGNYWGQGTQVTVSS”, the “polyreactivity (PSR sort gate)” value is “high polyreactivity”.
For “QVQHVESGGGLVQAGGSLRLSCAASGFMFYSYAMGWYRQPPGKEREFVAAITEDGDSSYYADSVKGRFTISRDNAKKTVYLQMNSLKPEDTAVYYCNTDLTFNGTSGDYDYWGQGTQVTVSS” the value was “low polyreactivity”; for “QVQHVESGGGLVQAGGSLRLSCAASGFTFAIYGKGWYRQAPGKERELVAAINWSGGRTYYADSVKGRFTISRDNAKNTVYVQMQSLKPDDTAVYYCAARYVSRWYDYEFWGQGTQVTVSS”, “high polyreactivity”.
For “QVQHVESGGGLVQAGGSLRLSCAASGFTFAWNAMGWYRQAPGKERELVAAITWGDNSTYYADSVKGRFTISRDNAKNTVYLQMNSLKPEDTAVYYCAARVTHWYYLFGYDYWGQATQVTVSS” the value was “low polyreactivity”.
Take “QVQHVESGGGLVQAGGSLRLSCAASGFTFFGDYAMGWYRQAPGKERELVAGISVSGGSTYYADSVKGRFTISRDNAKNSVYLQMNSLKPEDTGVYYCAARYSLKGGRYVYWGQGTQVTVSS”: the “polyreactivity (PSR sort gate)” value was “high polyreactivity”.
For “QVQHVESGGGLVQAGGSLRLSCAASGFTFLNYSMGWYRQAPGKERELVAAISFSTGRTYYADSVKGRFTISRDNAKNTVYLQMNSLKPEDTAVYYCNAERGFSDYWGQGTQVTVSS” the value was “high polyreactivity”.
Consider “QVQHVESGGGLVQAGGSLRLSCAASGFTFTAYAMGWYRQAPGKERELVAAISYRGGRTNYAYSVKGRFTISRDNAKNTVYLQMNSLKPEDTAVYYCAARPRISTREMDYWGQGTKVTVSS”, for which the “polyreactivity (PSR sort gate)” value was “high polyreactivity”.
For the sequence “QVQHVESGGGLVQAGGSLRLSCAASGFTFYSYAMGWYRQSPGKERELVANITIGGSTYADSVKGRFTISRENAKNTVYLQMNSLKPEDTAVYYCAKQYGGRYGYWGQGTQVTVSS”, the “polyreactivity (PSR sort gate)” value was “low polyreactivity”.
